Experimental findings from the supplement of paper PMC11316812 are described below.

One data set deals with MCF7. In words: percentage of EdU-negative (G0-arrested) nuclei per well, 72 h; higher = more G0 arrest. As to conditions: reference: sequence is the full UniProt precursor, the tested protein was the secreted form or ectodomain.
Another data set relates to hTERT-HMEC. The data set is described as above. The settings on record: reference: sequence is the full UniProt precursor, the tested protein was the secreted form or ectodomain.
The mark [1] stands for this setting: protein concentration 0.00975 µM.
The mark [2] stands for this setting: protein concentration 0.0975 µM.
Setting [3] is: protein concentration 0.0225 µM.
[4] abbreviates: protein concentration 0.01392 µM.
[5] abbreviates: protein concentration 0.1392 µM.

± gives the standard deviation of the averaged measurements.
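Also: secreted proteins added to cultured cells, EdU pulse at the end, nuclei found by Hoechst imaging, EdU status from nuclear versus surrounding ring intensity ratio, PBS as neutral control.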

Regarding “MPGPRRPAGSRLRLLLLLLLPPLLLLLRGSHAGNLTVAVVLPLANTSYPWSWARVGPAVELALAQVKARPDLLPGWTVRTVLGSSENALGVCSDTAAPLAAVDLKWEHNPAVFLGPGCVYAAAPVGRFTAHWRVPLLTAGAPALGFGVKDEYALTTRAGPSYAKLGDFVAALHRRLGWERQALMLYAYRPGDEEHCFFLVEGLFMRVRDRLNITVDHLEFAEDDLSHYTRLLRTMPRKGRVIYICSSPDAFRTLMLLALEAGLCGEDYVFFHLDIFGQSLQGGQGPAPRRPWERGDGQDVSARQAFQAAKIITYKDPDNPEYLEFLKQLKHLAYEQFNFTMEDGLVNTIPASFHDGLLLYIQAVTETLAHGGTVTDGENITQRMWNRSFQGVTGYLKIDSSGDRETDFSLWDMDPENGAFRVVLNYNGTSQELVAVSGRKLNWPLGYPPPDIPKCGFDNEDPACNQDHLSTLEVLALVGSLSLLGILIVSFFIYRKMQLEKELASELWRVRWEDVEPSSLERHLRSAGSRLTLSGRGSNYGSLLTTEGQFQVFAKTAYYKGNLVAVKRVNRKRIELTRKVLFELKHMRDVQNEHLTRFVGACTDPPNICILTEYCPRGSLQDILENESITLDWMFRYSLTNDIVKGMLFLHNGAICSHGNLKSSNCVVDGRFVLKITDYGLESFRDLDPEQGHTVYAKKLWTAPELLRMASPPVRGSQAGDVYSFGIILQEIALRSGVFHVEGLDLSPKEIIERVTRGEQPPFRPSLALQSHLEELGLLMQRCWAEDPQERPPFQQIRLTLRKFNRENSSNILDNLLSRMEQYANNLEELVEERTQAYLEEKRKAEALLYQILPHSVAEQLKRGETVQAEAFDSVTIYFSDIVGFTALSAESTPMQVVTLLNDLYTCFDAVIDNFDVYKVETIGDAYMVVSGLPVRNGRLHACEVARMALALLDAVRSFRIRHRPQEQLRLRIGIHTGPVCAGVVGLKMPRYCLFGDTVNTASRMESNGEALKIHLSSETKAVLEEFGGFELELRGDVEMKGKGKVRTYWLLGERGSSTRG”, the “percentage of EdU-negative” value in the data set on MCF7 (setting [1]) worked out at 23.4 ± 0.38%; with MCF7 (setting [2]), 29.51 ± 0.041%; in the data set on hTERT-HMEC (setting [1]), 4.49 ± 0.51%; with hTERT-HMEC (setting [2]) it was 7.62 ± 0.42%.

In the case of “MARAHWGCCPWLVLLCACAWGHTKPVDLGGQDVRNCSTNPPYLPVTVVNTTMSLTALRQQMQTQNLSAYIIPGTDAHMNEYIGQHDERRAWITGFTGSAGTAVVTMKKAAVWTDSRYWTQAERQMDCNWELHKEVGTTPIVTWLLTEIPAGGRVGFDPFLLSIDTWESYDLALQGSNRQLVSITTNLVDLVWGSERPPVPNQPIYALQEAFTGSTWQEKVSGVRSQMQKHQKVPTAVLLSALEETAWLFNLRASDIPYNPFFYSYTLLTDSSIRLFANKSRFSSETLSYLNSSCTGPMCVQIEDYSQVRDSIQAYSLGDVRIWIGTSYTMYGIYEMIPKEKLVTDTYSPVMMTKAVKNSKEQALLKASHVRDAVAVIRYLVWLEKNVPKGTVDEFSGAEIVDKFRGEEQFSSGPSFETISASGLNAALAHYSPTKELNRKLSSDEMYLLDSGGQYWDGTTDITRTVHWGTPSAFQKEAYTRVLIGNIDLSRLIFPAATSGRMVEAFARRALWDAGLNYGHGTGHGIGNFLCVHEWPVGFQSNNIAMAKGMFTSIEPGYYKDGEFGIRLEDVALVVEAKTKYPGSYLTFEVVSFVPYDRNLIDVSLLSPEHLQYLNRYYQTIREKVGPELQRRQLLEEFEWLQQHTEPLAARAPDTASWASVLVVSTLAILGWSV”, the “percentage of EdU-negative” value worked out at 23.2 ± 0.31% in the data set with MCF7 (setting [3]), 26.8 ± 0.78% in the data set on MCF7 (protein concentration 0.225 µM), 5.4 ± 1.8% in the data set on hTERT-HMEC (setting [3]) and 6.21 ± 0.83% in the data set on hTERT-HMEC (protein concentration 0.225 µM).

As for “MDMAWQMMQLLLLALVTAAGSAQPRSARARTDLLNVCMNAKHHKTQPSPEDELYGQCSPWKKNACCTASTSQELHKDTSRLYNFNWDHCGKMEPTCKRHFIQDSCLYECSPNLGPWIRQVNQSWRKERILNVPLCKEDCERWWEDCRTSYTCKSNWHKGWNWTSGINECPAGALCSTFESYFPTPAALCEGLWSHSFKVSNYSRGSGRCIQMWFDSAQGNPNEEVAKFYAAAMNAGAPSRGIIDS [A0A087WXL1]”, the “percentage of EdU-negative” value in the data set on MCF7 (setting [3]) worked out at 25.4 ± 0.5%; in the data set with MCF7 (protein concentration 0.225 µM) it was 24 ± 1.3%; in the data set on hTERT-HMEC (setting [3]), 5.28 ± 0.77%; with hTERT-HMEC (protein concentration 0.225 µM), 4.93 ± 0.46%.

In the case of “MRLKNLTFIIILIISGELYAEEKPCGFPHVENGRIAQYYYTFKSFYFPMSIDKKLSFFCLAGYTTESGRQEEQTTCTTEGWSPEPRCFKKCTKPDLSNGYISDVKLLYKIQENMRYGCASGYKTTGGKDEEVVQCLSDGWSSQPTCRKEHETCLAPELYNGNYSTTQKTFKVKDKVQYECATGYYTAGGKKTEEVECLTYGWSLTPKCTKLKCSSLRLIENGYFHPVKQTYEEGDVVQFFCHENYYLSGSDLIQCYNFGWYPESPVCEGRRNRCPPPPLPINSKIQTHSTTYRHGEIVHIECELNFEIHGSAEIRCEDGKWTEPPKCIEGQEKVACEEPPFIENGAANLHSKIYYNGDKVTYACKSGYLLHGSNEITCNRGKWTLPPECVENNENCKHPPVVMNGAVADGILASYATGSSVEYRCNEYYLLRGSKISRCEQGKWSSPPVCLEPCTVNVDYMNRNNIEMKWKYEGKVLHGDLIDFVCKQGYDLSPLTPLSELSVQCNRGEVKYPLCTRKESKGMCTSPPLIKHGVIISSTVDTYENGSSVEYRCFDHHFLEGSREAYCLDGMWTTPPLCLEPCTLSFTEMEKNNLLLKWDFDNRPHILHGEYIEFICRGDTYPAELYITGSILRMQCDRGQLKYPRCIPRQSTLSYQEPLRT”, the “percentage of EdU-negative” value with MCF7 (setting [4]) amounted to 26.7 ± 0.98%; in the data set on MCF7 (setting [5]), 25.4 ± 0.69%; in the data set on hTERT-HMEC (setting [4]), 5.59 ± 0.28%; in the data set with hTERT-HMEC (setting [5]), 7.25 ± 1.1%.
